Kd, koff and kon data for eight molecules are collected here from publication PMC3896602 (mAbs, 2013).

Common to all, as to assay: SPR
Assay [1] has as its target IT1-Fc-3B4 scFv-Fc-scFv bispecific molecule (human).
The target of assay [2] is IT1-Fc-E10 scFv-Fc-scFv bispecific molecule (human).
Assay [3] concerns the target IT1-Fc-A1 scFv-Fc-scFv bispecific molecule (human).
Another assay concerns the target human CXCL13 (Homo sapiens, UniProt O43927).

Substitutions are numbered along the chain they refer to.

B1: human CXCL13 (natural protein)
chain: VLEVYYTSLRCRCVQESSVFIPRRFIDRIQILPRGNGCPRKEIIVWKKNKSIVCVDPQAEWIQRMMEVLRKRSSSTLPVPVFKRKIP
A word on the Kd: it is the constant that tells how readily two partners part at equilibrium. Regarding B1, the Kd was 800 pM in assay [1], 67 pM in assay [2] and 10 pM in assay [3].

B2: anti-CXCL13 3B4 scFv-Fc fusion protein (Fc fusion, human)
VH: QVQLVQSGAEVKKPGSSVKVSCKASGGTFSSYAISWVRQAPGQGLEWMGGIIPIFGTANYAQKFQGRVTITADESTSTAYMELSSLRSEDTAVYYCAREPDYYDSSGYYPIDAFDIWGQGTTVTVSS
VL: QSALTQPASVSASPGQSITISCTGTSSDVGAYDWVSWYQQHPGKAPKLLIFDVNNRPSGVSHRFSGSKSGNTASLTISGLQAEDEADYYCSSYTRRDTYVFGTGTKVTVL
A word on the koff: it is the first-order rate constant of dissociation. A low value points to slow dissociation. In general, kon refers to the rate constant with which the complex forms. Low values mean slow association, high ones fast association. In the assay with human CXCL13, B2 had a Kd of 372 pM, a koff of 0.0121 s⁻¹ and a kon of 3.24e+07 M⁻¹ s⁻¹.

B3: anti-CXCL13 A01 scFv-Fc fusion protein (Fc fusion, human)
VH: B2 VH
VL: B2 VL with S91A, Y93T, R95L, R96F
For the molecule B3, in the assay with human CXCL13, the Kd came out at 29.8 pM, the koff turned out to be 0.0003 s⁻¹ and the kon came out at 9.28e+06 M⁻¹ s⁻¹.

B4: anti-CXCL13 H08 scFv-Fc fusion protein (Fc fusion, human)
VH: B2 VH
VL: B2 VL with S91T, Y93V, R95V, R96E
As for B4, in the assay with human CXCL13, the Kd is 19.9 pM, the koff was 0.0002 s⁻¹ and the kon turned out to be 8.53e+06 M⁻¹ s⁻¹.

B5: anti-CXCL13 H06 scFv-Fc fusion protein (Fc fusion, human)
VH: B2 VH
VL: B2 VL with S91A, Y93V, T94V, R95V, R96T
In the assay with human CXCL13, B5 gave a Kd of 37.6 pM, a koff of 0.0003 s⁻¹ and a kon of 7.54e+06 M⁻¹ s⁻¹.

B6: anti-CXCL13 C04 scFv-Fc fusion protein (Fc fusion, human)
VH: B2 VH
VL: B2 VL with Y93A, T94G, R95I, R96I, D97S, T98V
Take B6: in the assay with human CXCL13, binding was characterised by a dissociation constant (Kd) of 46 pM, the koff is 0.0003 s⁻¹ and the kon was found to be 6.22e+06 M⁻¹ s⁻¹.

B7: anti-CXCL13 C07 scFv-Fc fusion protein (Fc fusion, human)
VH: B2 VH
VL: B2 VL with Y93P, R95F, R96T, D97E, T98P
As to B7, in the assay with human CXCL13, the Kd worked out at 27.9 pM, the koff was 0.0002 s⁻¹ and the kon stood at 8.03e+06 M⁻¹ s⁻¹.

B8: anti-CXCL13 E10 scFv-Fc fusion protein (Fc fusion, human)
VH: B2 VH
VL: B2 VL with S91A, Y93A, R95L, R96L
In the assay with human CXCL13, B8 registered a Kd of 45.4 pM, a koff of 0.0005 s⁻¹ and a kon of 9.81e+06 M⁻¹ s⁻¹.
